# Measurements as given in patent US20100159560.
# T1: synthetic peptide Gly-Pro-Ser-Phe-Arg-Ala-Pro-Asp-Ser
# T1 chain: GPSFRAPDS
# T2: protransglutaminase of Streptoverticillium mobaraense IFO13819 (pro-MTG), P81453
# T2 chain: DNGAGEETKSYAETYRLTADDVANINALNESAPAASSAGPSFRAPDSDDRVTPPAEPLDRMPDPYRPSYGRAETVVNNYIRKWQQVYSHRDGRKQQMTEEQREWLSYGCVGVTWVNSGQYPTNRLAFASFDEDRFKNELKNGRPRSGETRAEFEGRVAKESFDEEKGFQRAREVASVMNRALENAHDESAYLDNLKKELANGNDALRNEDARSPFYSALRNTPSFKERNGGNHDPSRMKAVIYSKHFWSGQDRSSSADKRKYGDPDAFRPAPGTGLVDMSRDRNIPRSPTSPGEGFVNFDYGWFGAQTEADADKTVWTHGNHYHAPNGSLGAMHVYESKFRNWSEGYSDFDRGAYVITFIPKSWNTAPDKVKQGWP
# T3: Streptomyces subtilisin inhibitor (SSI) derived from actinomycetes, P01006
# T3 chain: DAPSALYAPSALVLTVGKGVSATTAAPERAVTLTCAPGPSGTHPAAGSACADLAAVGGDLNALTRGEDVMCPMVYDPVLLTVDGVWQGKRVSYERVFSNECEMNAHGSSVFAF
# B1: neutral metalloprotease SVP35 from Streptoverticillium mobaraense IFO13819 (protein)
# chain: GTGTSTYSGTVPLTTTKSGSQYQLNDGARGGHKTYDLNQGTSGTGSLFTNSTDTWGGGRQTAGVDAHYGAAVTWDFYKNVFGRNGIRNDGKAAYSRVHYGNSYVNAFWSDSCFCMTYGDGQNNKNPLTALDVAAHEMSHGVTAATAKLVYSGESGGLNEATSDIFGTAVEFYANNKTDVGDYLIGEKINIYGDGKPLRYMDKPSKDGKSKDSWYSGIGGVDVHYSSGPANHFFYLLSEGSGKKTINGVDYDSPTADGSKVTGIGRDKAQKIWYKALTTQFTSNTNYAKARTGTLNAAASLYGNNSAEYKAVAAAWSAINVK
# Assays:
# [1] = biological target: T1, synthetic peptide …
# [2] = biological target: T2, protransglutaminase of …
# [3] = biological target: T3, Streptomyces subtilisin inhibitor (SSI) …
protein,measurement,setting,value
B1,cleavage points (HPLC separation and sequencing of peptide fragments),insulin B,"cleaved before (at the N-terminal of) especially Phe, often Leu, sometimes Tyr, Trp, Ile, Val"
same,"cleavage activity on the peptide substrate (HPLC, decrease of substrate)",[1],SVP35 was allowed to act on Gly-Pro-Ser-Phe-Arg-Ala-Pro-Asp-Ser (SEQ ID NO: 11) as a substrate
same,cleavage points (HPLC separation and sequencing of peptide fragments),[2],"cleaved before (at the N-terminal of) especially Phe, often Leu, sometimes Tyr, Trp, Ile, Val"
same,"conversion of pro-MTG to mature MTG (SDS-PAGE time course; TG activity by the hydroxamate method), substrate:enzyme = 200:1",[2],"pro-MTGs were converted to the mature forms, and the produced MTGs were not reduced even after a long-term reaction"
same,"relative activity (Gly-Pro-Ser-Phe-Arg-Ala-Pro-Asp-Ser cleavage activity, absence of compounds = 100%)",[3],strongly inhibited
